Reference: patent US20190263934A1

How the values were obtained:
[1] = biological target: biotinylated human FcRn (hFcRn; p51 subunit residues 24-297 with C-terminal Avi-tag, β2-m residues 21-119) (human) (UniProt P55899); assay: Biacore SPR, human FcRn, pH 7.4, steady state
[2] = biological target: biotinylated human FcRn (hFcRn; p51 subunit residues 24-297 with C-terminal Avi-tag, β2-m residues 21-119) (human) (UniProt P55899); assay: Biacore SPR, Biotin CAPture of biotinylated human FcRn, pH 6.0
[3] = biological target: biotinylated human FcRn (hFcRn; p51 subunit residues 24-297 with C-terminal Avi-tag, β2-m residues 21-119) (human) (UniProt P55899); assay: Biacore SPR, human FcRn, pH 6.0 (column 'Affinity, pH 6.0 (nM)')
[4] = biological target: biotinylated human FcRn (hFcRn; p51 subunit residues 24-297 with C-terminal Avi-tag, β2-m residues 21-119) (human) (UniProt P55899); assay: Biacore SPR, Biotin CAPture, pH 7.4, 1000 nM antibody, steady state
[5] = biological target: biotinylated human FcRn (hFcRn; p51 subunit residues 24-297 with C-terminal Avi-tag, β2-m residues 21-119) (human) (UniProt P55899); assay: Biacore SPR, pH 6.0, apparent affinity
[6] = biological target: biotinylated human FcRn (hFcRn; p51 subunit residues 24-297 with C-terminal Avi-tag, β2-m residues 21-119) (human) (UniProt P55899); assay: Biacore SPR; second ratio column (inverse of c7)
[7] = biological target: biotinylated human FcRn (hFcRn; p51 subunit residues 24-297 with C-terminal Avi-tag, β2-m residues 21-119) (human) (UniProt P55899); assay: Biacore SPR, pH 7.4, steady state, 1000 nM antibody
[8] = biological target: biotinylated human FcRn (hFcRn; p51 subunit residues 24-297 with C-terminal Avi-tag, β2-m residues 21-119) (human) (UniProt P55899); assay: Biacore SPR; pH 6.0 affinity (M^-1) over pH 7.4 steady state RU
[9] = biological target: biotinylated hFcRn (human) (UniProt P55899); assay: Biacore SPR, pH 6.0, bivalent fit
rFcRn (rat) [10] = biological target: rFcRn (rat) (UniProt P13599); assay: Biacore SPR, pH 6.0, bivalent fit
Target sequence in this assay (P13599 23-298, form in doubt, chain 1 of 2): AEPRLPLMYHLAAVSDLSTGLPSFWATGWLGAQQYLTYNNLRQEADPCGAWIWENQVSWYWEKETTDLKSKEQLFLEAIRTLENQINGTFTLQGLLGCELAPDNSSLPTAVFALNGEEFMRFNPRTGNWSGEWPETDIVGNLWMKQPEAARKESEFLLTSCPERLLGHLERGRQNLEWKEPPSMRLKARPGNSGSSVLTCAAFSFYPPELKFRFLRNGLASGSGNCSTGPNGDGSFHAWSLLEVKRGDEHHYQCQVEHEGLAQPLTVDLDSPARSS
Target sequence in this assay (P07151 21-119, form in doubt, chain 2 of 2, further chain): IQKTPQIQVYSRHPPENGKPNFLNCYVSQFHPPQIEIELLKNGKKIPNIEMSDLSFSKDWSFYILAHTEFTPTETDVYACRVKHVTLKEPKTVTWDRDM

[11] = biological target: biotinylated hFcRn (human) (UniProt P55899); assay: Biacore SPR, pH 7.4, single antibody concentration, steady state
rFcRn (rat) [12] = biological target: rFcRn (rat) (UniProt P13599); assay: as above
Target sequence in this assay (P13599 23-298, form in doubt, chain 1 of 2): as the sequence (P13599 23-298, form in doubt, chain 1 of 2) above
Target sequence in this assay (P07151 21-119, form in doubt, chain 2 of 2, further chain): as the sequence (P07151 21-119, form in doubt, chain 2 of 2, further chain) above

[13] = biological target: Human CD16a (FcγRIIIa) V158 with C-terminal HPC4 tag (human) (UniProt P08637); assay: Biacore SPR, captured HPC4-tagged FcγRIIIa-V158, steady-state fit
Sequence of Human CD16a (FcγRIIIa) V158 with C-terminal HPC4 tag (human) (P08637 17-208 F176V): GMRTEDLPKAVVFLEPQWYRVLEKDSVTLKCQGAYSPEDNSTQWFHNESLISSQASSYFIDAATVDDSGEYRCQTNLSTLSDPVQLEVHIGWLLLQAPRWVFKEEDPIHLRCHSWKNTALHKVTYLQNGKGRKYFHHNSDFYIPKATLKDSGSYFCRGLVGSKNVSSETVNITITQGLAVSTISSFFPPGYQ

[14] = biological target: biotinylated hFcRn (human) (UniProt P55899); assay: SPR Biacore, pH 6.0
rFcRn (rat) [15] = biological target: rFcRn (rat) (UniProt P13599); assay: SPR Biacore, pH 6.0
Target sequence in this assay (P13599 23-298 limits assumed, form in doubt, chain 1 of 2): as the sequence (P13599 23-298, form in doubt, chain 1 of 2) above
Target sequence in this assay (P07151 21-119 limits assumed, form in doubt, chain 2 of 2, further chain): as the sequence (P07151 21-119, form in doubt, chain 2 of 2, further chain) above

rFcRn (rat) [16] = biological target: rFcRn (rat) (UniProt P13599); assay: BLI Octet, pH 6.0, purified antibody
Target sequence in this assay (P13599 23-298 limits assumed, form in doubt, chain 1 of 2): as the sequence (P13599 23-298, form in doubt, chain 1 of 2) above
Target sequence in this assay (P07151 21-119 limits assumed, form in doubt, chain 2 of 2, further chain): as the sequence (P07151 21-119, form in doubt, chain 2 of 2, further chain) above

[17] = biological target: biotinylated hFcRn (human) (UniProt P55899); assay: SPR Biacore, pH 7.4, 1000 nM antibody
rFcRn (rat) [18] = biological target: rFcRn (rat) (UniProt P13599); assay: SPR Biacore, pH 7.4, 1000 nM antibody
Target sequence in this assay (P13599 23-298 limits assumed, form in doubt, chain 1 of 2): as the sequence (P13599 23-298, form in doubt, chain 1 of 2) above
Target sequence in this assay (P07151 21-119 limits assumed, form in doubt, chain 2 of 2, further chain): as the sequence (P07151 21-119, form in doubt, chain 2 of 2, further chain) above

Substance	pH 7.4 RU [4] [RU]	Kd [9] [nM]	koff [9] [s⁻¹]	kon [9] [M⁻¹ s⁻¹]	Kd (rFcRn (rat) [10]) [nM]	koff (rFcRn (rat) [10]) [s⁻¹]	kon (rFcRn (rat) [10]) [M⁻¹ s⁻¹]	Steady State RU (pH 7.4) [11] [RU]	Steady State RU (pH 7.4) (rFcRn (rat) [12]) [RU]	Kd [13] [nM]	also measured
mAb1 YEQY variant (M252Y/T256E/T307Q/N434Y) (antibody)	93.6										Steady State RU (pH 7.4) [1]: 93.6 RU; Kd [2]: 4.8 nM; Kd [3]: 4.8 nM
mAb1 T307E (antibody)		8130	0.3	44000	141	0.006	56000				Kd [14]: 8130 nM; koff [14]: 0.298 s⁻¹; kon [14]: 43700 M⁻¹ s⁻¹; Kd (rFcRn (rat) [15]): 141 nM; koff (rFcRn (rat) [15]): 0.00603 s⁻¹; kon (rFcRn (rat) [15]): 55500 M⁻¹ s⁻¹; koff (rFcRn (rat) [16]): 0.00329 s⁻¹; Steady State RU [17]: 5.7 RU; Steady State RU (rFcRn (rat) [18]): 21.5 RU
mAb1 YEWY variant (M252Y/T256E/T307W/N434Y) (antibody)	98.2										Steady State RU (pH 7.4) [1]: 98.2 RU
mAb1 YTE (M252Y/S254T/T256E) (antibody)		342	0.05	143000	18	0.0012	65000	13.2	53.9	1040	
mAb1 MDQN (T256D/T307Q) (antibody)		232		38000	9.5	0.0013	13000	10.7	39.1	600	
YTEKF benchmark (MST-HN variant; M252Y/S254T/T256E/H433K/N434F) (antibody)	89.9										Steady State RU (pH 7.4) [1]: 89.9 RU; Kd [2]: 14.8 nM; Kd [3]: 14.8 nM
mAb1 YTWN (M252Y/T307W) (antibody)		118		48000	5.2	0.0011	21000	15.9	66.1	896	
mAb1 MDWN (T256D/T307W) (antibody)		169		53000	8.2	0.0013	16000	12.2	42.1	512	
mAb1 LS (M428L/N434S) (antibody)		272	0.05	193000	74	0.0066	91000	18.3	24.8	369	

Second part, led by results:

pH 7.4 RU [4] [RU]	Kd [9] [nM]	koff [9] [s⁻¹]	kon [9] [M⁻¹ s⁻¹]	Kd (rFcRn (rat) [10]) [nM]	koff (rFcRn (rat) [10]) [s⁻¹]	kon (rFcRn (rat) [10]) [M⁻¹ s⁻¹]	Steady State RU (pH 7.4) [11] [RU]	Steady State RU (pH 7.4) (rFcRn (rat) [12]) [RU]	Kd [13] [nM]	Substance	also measured
59.8										mAb1 MDWY variant (T256D/T307W/N434Y) (antibody)	Ka [5]: 8.4e+07 M⁻¹; Ratio (pH 7.4/pH 6.0) [6]: 7.02e-07; Steady State Binding, pH 7.4 (RU) [7]: 59 RU; Kd [2]: 18.1 nM; Ratio (pH 6.0/pH 7.4) [8]: 1.42e+06
	1780	0.14	84000	77	0.0117	157000	13.9	23.6	450	mAb1 AAA (T307A/E380A/N434A) (antibody)	
54.4										mAb1 YTTY variant (M252Y/N434Y) (antibody)	Ka [5]: 1.2e+08 M⁻¹; Ratio (pH 7.4 RU / pH 6.0 affinity) [6]: 4.51e-07; Steady State Binding, pH 7.4 (RU) [7]: 54.1 RU; Kd [2]: 22.9 nM; Ratio (pH 6.0/pH 7.4) [8]: 2.22e+06
	218	0.41	19000	7.8	0.0004	5000	15.2	61.8	1620	mAb1 YEQN (M252Y/T256E/T307Q) (antibody)	
	115	0.28	25000	5.1	0.0003	5000	19.8	65.2	1060	mAb1 YDQN (M252Y/T256D/T307Q) (antibody)	
				5.9			9.7	56	1060	mAb1 YDTN (M252Y/T256D) (antibody)	
	128		59000	8.4	0.0027	32000	9.8	55.1	878	mAb1 YETN (M252Y/T256E) (antibody)	
